In data set [1] the target is T1, GST-WRNIP1 (Homo sapiens, UniProt Q96S55 1-665).
T1 sequence: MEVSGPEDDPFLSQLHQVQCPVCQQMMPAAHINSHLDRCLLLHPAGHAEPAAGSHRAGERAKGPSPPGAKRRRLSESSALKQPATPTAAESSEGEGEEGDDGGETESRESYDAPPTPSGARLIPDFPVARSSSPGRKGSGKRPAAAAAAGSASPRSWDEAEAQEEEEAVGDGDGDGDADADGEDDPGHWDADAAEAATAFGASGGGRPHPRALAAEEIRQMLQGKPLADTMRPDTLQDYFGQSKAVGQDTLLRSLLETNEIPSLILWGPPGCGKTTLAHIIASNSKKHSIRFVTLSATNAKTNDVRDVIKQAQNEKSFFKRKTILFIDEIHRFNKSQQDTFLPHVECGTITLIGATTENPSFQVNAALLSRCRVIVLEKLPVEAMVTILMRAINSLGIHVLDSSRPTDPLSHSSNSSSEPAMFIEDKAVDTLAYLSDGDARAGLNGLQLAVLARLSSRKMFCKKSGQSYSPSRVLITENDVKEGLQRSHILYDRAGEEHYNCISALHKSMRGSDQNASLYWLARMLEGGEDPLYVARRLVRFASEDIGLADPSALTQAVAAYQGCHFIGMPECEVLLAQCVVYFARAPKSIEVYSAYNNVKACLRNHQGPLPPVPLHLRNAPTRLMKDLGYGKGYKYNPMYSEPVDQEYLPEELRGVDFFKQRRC
The experiment in a line: fluorescence anisotropy; Hill n 0.96; Anisotropy: 10 nM DNA, 50 mM Tris-HCl pH 7.5, 90 mM KCl, 5 mM EDTA, with or without 1 mM ATP and 1.25 mM MgCl2, 25 C; EMSA: 50 nM DNA, 50 mM Tris-HCl pH 7.5, 150 mM KCl, 15 min 25 C, 6% native gel; DNA folded in 25 mM Tris-HCl pH 7.5, 50 mM KCl. To be noted: protein: recombinant; (GST fusion); label: 5' FITC. (In general: Polarisation of emitted light reports the rotation of a fluorescent probe.)

The target of data set [2] is T1, GST-WRNIP1. The experiment in a line: fluorescence anisotropy; Hill n 0.95; Anisotropy: 10 nM DNA, 50 mM Tris-HCl pH 7.5, 90 mM KCl, 5 mM EDTA, with or without 1 mM ATP and 1.25 mM MgCl2, 25 C; EMSA: 50 nM DNA, 50 mM Tris-HCl pH 7.5, 150 mM KCl, 15 min 25 C, 6% native gel; DNA folded in 25 mM Tris-HCl pH 7.5, 50 mM KCl. To be noted: protein: recombinant; (GST fusion); label: 5' FITC; intramolecular G4 with 3' ssDNA tail.

Data set [3] has as its target T1, GST-WRNIP1. Nature of the data set: fluorescence anisotropy; Hill n 1.1; Anisotropy: 10 nM DNA, 50 mM Tris-HCl pH 7.5, 90 mM KCl, 5 mM EDTA, with or without 1 mM ATP and 1.25 mM MgCl2, 25 C; EMSA: 50 nM DNA, 50 mM Tris-HCl pH 7.5, 150 mM KCl, 15 min 25 C, 6% native gel; DNA folded in 25 mM Tris-HCl pH 7.5, 50 mM KCl. Particulars: protein: recombinant; (GST fusion); label: 5' FITC on strand 1; 21 bp duplex at 3' end of strand 1; 5' ss G4 overhang 27 nt; strand 2 5' TTT overhang.

In data set [4] the target is T1, GST-WRNIP1. Nature of the data set: fluorescence anisotropy; Hill n 0.55; Anisotropy: 10 nM DNA, 50 mM Tris-HCl pH 7.5, 90 mM KCl, 5 mM EDTA, with or without 1 mM ATP and 1.25 mM MgCl2, 25 C; EMSA: 50 nM DNA, 50 mM Tris-HCl pH 7.5, 150 mM KCl, 15 min 25 C, 6% native gel; DNA folded in 25 mM Tris-HCl pH 7.5, 50 mM KCl. To be noted: protein: recombinant; (GST fusion); label: 5' FITC; intramolecular G4 with 3' ssDNA tail of 21 nt.

The target of data set [5] is T1, GST-WRNIP1. Nature of the data set: fluorescence anisotropy; 1 mM ATP; Hill n 0.66; Anisotropy: 10 nM DNA, 50 mM Tris-HCl pH 7.5, 90 mM KCl, 5 mM EDTA, with or without 1 mM ATP and 1.25 mM MgCl2, 25 C; EMSA: 50 nM DNA, 50 mM Tris-HCl pH 7.5, 150 mM KCl, 15 min 25 C, 6% native gel; DNA folded in 25 mM Tris-HCl pH 7.5, 50 mM KCl. Particulars: protein: recombinant; (GST fusion); label: 5' FITC; intramolecular G4 with 3' ssDNA tail of 21 nt.

Data set [6] deals with T1, GST-WRNIP1. Nature of the data set: fluorescence anisotropy; no ATP (ATP comparison series); Hill n 0.72; Anisotropy: 10 nM DNA, 50 mM Tris-HCl pH 7.5, 90 mM KCl, 5 mM EDTA, with or without 1 mM ATP and 1.25 mM MgCl2, 25 C; EMSA: 50 nM DNA, 50 mM Tris-HCl pH 7.5, 150 mM KCl, 15 min 25 C, 6% native gel; DNA folded in 25 mM Tris-HCl pH 7.5, 50 mM KCl. Particulars: protein: recombinant; (GST fusion); label: 5' FITC; intramolecular G4 with 3' ssDNA tail of 21 nt.

The target in data set [7] is T1, GST-WRNIP1. Nature of the data set: fluorescence anisotropy; Hill n 0.88; Anisotropy: 10 nM DNA, 50 mM Tris-HCl pH 7.5, 90 mM KCl, 5 mM EDTA, with or without 1 mM ATP and 1.25 mM MgCl2, 25 C; EMSA: 50 nM DNA, 50 mM Tris-HCl pH 7.5, 150 mM KCl, 15 min 25 C, 6% native gel; DNA folded in 25 mM Tris-HCl pH 7.5, 50 mM KCl. Particulars: protein: recombinant; (GST fusion); label: 5' FITC on strand 1; 21 bp duplex at 3' end of strand 1; 5' ss G4 overhang 21 nt; strand 2 5' TTT overhang.

The Kd is the constant that tells how readily two partners part at equilibrium.

As to ACTCCCACCCATCCCACCCACGCAGACGCCGACCGAGCTCCG (ssDNA) [C-rich control], in data set [1], the Kd amounted to 3500 ± 511 nM.
Take AAGGGTGGGTGTAAGTGTGGGTGGGTGCGTCTGCGGCTGGCTCGAGGC (structured_DNA) [CEB G4 ss (CEB25)]: in data set [2], the Kd was 65 ± 6 nM.

B1: CEB G4 partial duplex (structured_DNA)
DNA 1: AAGGGTGGGTGTAAGTGTGGGTGGGTGCGTCTGCGGCTGGCTCGAGGC
DNA 2: TTTGCCTCGAGCCAGCCGCAGACG
On to B1, for which, in data set [3], the Kd turned out to be 221 ± 44 nM.
For TGAGGGTGGGTAGGGTGGGTGCGTCTGCGGCTGGCTCGAGGC (structured_DNA) [MYC G4 ss (Myc2345)], the values for the Kd in data set [4], in data set [5] and in data set [6] were 184 ± 36 nM, 183 ± 52 nM and 175 ± 43 nM, respectively.

B2: MYC G4 partial duplex (structured_DNA)
DNA 1: TGAGGGTGGGTAGGGTGGGTGCGTCTGCGGCTGGCTCGAGGC
DNA 2: TTTGCCTCGAGCCAGCCGCAGACG
As for B2, the Kd in data set [7] was determined as 108 ± 45 nM.
